By stoichiometry N is commonly meant a count of units in the complex or per binding partner.

For test [1], the target named is human insulin (human) (UniProt P01308). Briefly: AUC; sedimentation velocity, 300 μM insulin, […] m-cresol, […] ZnCl2, 25 mM tris buffer pH 8.0, interference optics.
Test [2] has the same target. Put plainly: circular dichroism, dissociation kinetics after dilution; 600 μM insulin, 250 μM ZnCl2, 25 mM m-cresol, 25 mM tris pH 8 (R6 hexamer), diluted 150-fold into 25 mM tris pH 8.0; ellipticity at 222 nm over 120 s at 25 °C; monoexponential fit; hexamer to monomers. On the technique in general: Circular dichroism is the unequal absorption of left and right circularly polarised light.

In test [1], “human insulin (from UniProt P01308 25-54; P01308 90-110) (natural protein)” displayed a stoichiometry N of 6. Besides, in test [2], the t1/2 of hexamer dissociation came out at 18.4 s.

(Values after article PMC10728891.)
